Data: PMC2632905
Like-named read-outs stand apart in the source and are kept apart here.

Tests used:
Cdc13(DBD) [1] = target: T1, Cdc13(DBD) (Saccharomyces cerevisiae, UniProt P32797 497-694); experiment: footprinting
T1 sequence: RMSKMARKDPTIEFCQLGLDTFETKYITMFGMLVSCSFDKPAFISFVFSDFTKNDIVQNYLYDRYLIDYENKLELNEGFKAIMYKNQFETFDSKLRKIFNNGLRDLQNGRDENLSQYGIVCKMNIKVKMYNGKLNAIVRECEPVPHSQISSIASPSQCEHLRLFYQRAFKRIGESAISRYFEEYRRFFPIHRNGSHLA

Cdc13p full-length [2] = target: T2, Cdc13p full-length (Saccharomyces cerevisiae, UniProt P32797 1-924); experiment: footprinting
T2 sequence: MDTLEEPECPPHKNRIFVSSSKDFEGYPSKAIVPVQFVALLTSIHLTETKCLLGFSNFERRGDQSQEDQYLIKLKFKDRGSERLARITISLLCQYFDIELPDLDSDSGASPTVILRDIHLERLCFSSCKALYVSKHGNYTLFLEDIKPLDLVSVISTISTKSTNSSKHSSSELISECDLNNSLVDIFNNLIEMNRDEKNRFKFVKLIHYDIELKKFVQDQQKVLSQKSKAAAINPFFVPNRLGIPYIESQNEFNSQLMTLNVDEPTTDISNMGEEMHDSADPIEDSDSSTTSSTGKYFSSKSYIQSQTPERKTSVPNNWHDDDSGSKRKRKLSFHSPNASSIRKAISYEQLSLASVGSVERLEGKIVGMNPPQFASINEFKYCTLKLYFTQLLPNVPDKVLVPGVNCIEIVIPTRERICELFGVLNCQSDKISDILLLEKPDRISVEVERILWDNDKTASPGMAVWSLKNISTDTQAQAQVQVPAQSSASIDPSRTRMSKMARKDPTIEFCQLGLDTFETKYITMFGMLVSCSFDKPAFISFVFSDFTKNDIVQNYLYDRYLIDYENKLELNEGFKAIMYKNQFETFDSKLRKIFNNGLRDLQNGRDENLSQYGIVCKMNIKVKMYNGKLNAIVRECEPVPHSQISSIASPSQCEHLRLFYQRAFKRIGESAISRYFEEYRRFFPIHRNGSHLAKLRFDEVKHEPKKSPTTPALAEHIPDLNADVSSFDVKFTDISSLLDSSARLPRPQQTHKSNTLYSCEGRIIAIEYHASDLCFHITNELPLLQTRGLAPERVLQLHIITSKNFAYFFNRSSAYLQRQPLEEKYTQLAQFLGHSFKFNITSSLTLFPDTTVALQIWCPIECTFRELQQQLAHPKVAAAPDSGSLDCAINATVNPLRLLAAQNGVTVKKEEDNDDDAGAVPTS

Cdc13p full-length [3] = target: T2, Cdc13p full-length; experiment: EMSA
Cdc13(DBD) [4] = target: T1, Cdc13(DBD); experiment: filter binding
Cdc13p full-length [5] = target: T2, Cdc13p full-length; experiment: footprinting; remark: listed apart in the source
Cdc13(DBD) [6] = target: T1, Cdc13(DBD); experiment: footprinting; remark: listed apart in the source

B1: TEL*-GTGGG (ssDNA)
DNA: GTGTCTGTCTGGTGGG
B1: binds (Cdc13(DBD) [1]); binds (Cdc13p full-length [2]).

B2: TEL*-a10 (ssDNA)
DNA: GTGTCTGTCTGAAAAAAAAAA
With B2 the Kd (Cdc13p full-length [3]) was 7.4 ± 2.4 nM and the Kd (Cdc13(DBD) [4]) was 380 ± 57 nM.

B3: TEL* (ssDNA)
DNA: GTGTCTGTCTG
Work on B3 yielded a Kd (Cdc13p full-length [3]) of 11 ± 3.8 nM and a Kd (Cdc13(DBD) [4]) of 620 ± 120 nM.

B4: TEL*-GTGTGGG (ssDNA)
DNA: GTGTCTGTCTGGTGTGGG
B4 gave a Kd (Cdc13p full-length [3]) of 0.81 ± 0.15 nM.

B5: TEL*-TGTGGG (ssDNA)
DNA: GTGTCTGTCTGTGTGGG
B5: binds (Cdc13p full-length [5]); binds (Cdc13(DBD) [6]).

B6: TEL*-GGG (ssDNA)
DNA: GTGTCTGTCTGGGG
Binder B6 has a Kd (Cdc13p full-length [3]) of 2.2 ± 0.7 nM and a Kd (Cdc13(DBD) [4]) of 33 ± 5.7 nM.

B7: TEL (ssDNA)
DNA: GTGTGGGTGTG
B7 gave a Kd (Cdc13p full-length [3]) of 0.43 ± 0.17 nM and a Kd (Cdc13(DBD) [4]) of 2.8 ± 0.6 nM.

B8: TEL*-GG (ssDNA)
DNA: GTGTCTGTCTGGG
With B8 the Kd (Cdc13p full-length [3]) was 0.81 ± 0.03 nM.
